T1: SLAM-Associated Protein (SAP) (UniProt O60880 1-128)
T1 construct: SAP, UniProt O60880, full size 128
T1 sequence (looked up): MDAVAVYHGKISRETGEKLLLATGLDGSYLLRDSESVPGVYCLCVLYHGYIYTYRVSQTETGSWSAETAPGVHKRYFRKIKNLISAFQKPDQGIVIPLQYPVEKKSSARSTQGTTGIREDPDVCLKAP


Legend:
[1] = target: T1, SLAM-Associated Protein (SAP); experiment: peptide or protein array; PEPscan: overlapping dodecapeptides (two amino acid shift) spanning the complete sequence of one partner on a cellulose membrane; saturated with 3% non-fat dry milk/3% BSA; incubated with the purified protein partner (4 mg/mL, 4 °C, overnight); antibody against that protein, HRP-conjugated secondary antibody, ECL; settings: both partners purified
TIMP-1 = target: T2, TIMP-1 (UniProt P01033 24-207); experiment: as above; settings: both partners purified
T2 construct: TIMP-1, UniProt P01033, full size 207
T2 sequence (P01033 24-207): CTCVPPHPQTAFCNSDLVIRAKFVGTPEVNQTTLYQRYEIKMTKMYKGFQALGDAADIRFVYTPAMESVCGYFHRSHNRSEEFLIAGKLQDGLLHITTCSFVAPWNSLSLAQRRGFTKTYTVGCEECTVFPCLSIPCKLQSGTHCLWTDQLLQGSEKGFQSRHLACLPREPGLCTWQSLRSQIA

binding result [1]	binding result (TIMP-1)	Binder
binds		ALYDYEARTEDDLSFH (stretch of Fyn; union of positive overlapping dodecapeptide spots 2:14–16; also called FSYN-SH3 2:14–16; source: spot synthesis on cellulose membrane) [Fyn fragment ALYDYEARTEDDLSFH]
	binds	FREYNLHRVAAHELGHSL (stretch of MMP-1; union of positive overlapping dodecapeptide spots 4:11–14; also called MMP1 4:11–14; source: spot synthesis on cellulose membrane) [MMP1 fragment FREYNLHRVAAHELGHSL]
